The source of these data is FireProtDB (doi:10.1016/j.bpc.2007.12.006).

Values joined by “and” are separate entries in the source; they are usually repeats but may differ in a detail not shown here. Identical values can stand only once.

The conditions of the series: CD, reversible: Yes, whole UniProt chain shown; for unfolding free energy: 25 °C; for heat capacity change of unfolding: Thermal.

B1: Alpha-lactalbumin wild type, P00711 (protein)
chain: MMSFVSLLLVGILFHATQAEQLTKCEVFRELKDLKGYGGVSLPEWVCTTFHTSGYDTQAIVQNNDSTEYGLFQINNKIWCKDDQNPHSSNICNISCDKFLDDDLTDDIMCVKKILDKVGINYWLAHKALCSEKLDQWLCEKL
For B1, the unfolding free energy is, setting by setting: (Bos taurus, pH 7, GdnHCl, Cacodylic acid 0.05 M, NaCl 0.1 M) 2.41 kcal/mol; (Bos taurus, pH 7, Urea, Cacodylic acid 0.05 M, NaCl 0.1 M) 2.35 kcal/mol. For the setting “Bos taurus, pH 7, Cacodylic acid 0.05 M, NaCl 0.1 M”, the “heat capacity change of unfolding” value is 2.15 kcal/mol/K and 2 kcal/mol/K.

B2: Guanyl-specific ribonuclease T1 wild type, P00651 (protein)
chain: MMYSKLLTLTTLLLPTALALPSLVERACDYTCGSNCYSSSDVSTAQAAGYQLHEDGETVGSNSYPHKYNNYEGFDFSVSSPYYEWPILSSGDVYSGGSPGADRVVFNENNQLAGVITHTGASGNNFVECT
B2: the unfolding free energy by setting is: (Aspergillus oryzae (strain ATCC 42149 / RIB 40), pH 2.2, GdnHCl, Glycine-HCl 0.1 M, KCl 0.1 M) 2.72 kcal/mol; (Aspergillus oryzae (strain ATCC 42149 / RIB 40), pH 2.2, Urea, Glycine-HCl 0.1 M, KCl 0.1 M) 2.77 kcal/mol. The “heat capacity change of unfolding” value (Aspergillus oryzae (strain ATCC 42149 / RIB 40), pH 2.2, Glycine-HCl 0.1 M, KCl 0.1 M) is 2.5 kcal/mol/K and 2.65 kcal/mol/K.
